Source: patent publication US20250361274A1, “PEPTIDE AND PEPTIDE-CONTAINING AGENT” (PEPTIDREAM INC., priority 2022, published 2025)
Like-named read-outs stand apart in the source and are kept apart here. Each block holds one molecule with its values, some of them ahead of it. Numbered stars: 1 amine (or outer) side, 2 acyl side, 3 side chain; on linkers, the order of the positions; unused ones are H or OH. Bridge positions count the residues as written; N and C are the ends. Square brackets hold non-standard residues; d marks the D form. Ends that are not written are not given here. KCOpipzaa = N6-(4-(carboxymethyl)piperazine-1-carbonyl)-L-lysine, O=C(NCCCC[C@H](N[*:1])C(=O)[*:2])N1CCN(CC(=O)[*:3])CC1; 3Pal(6-Ph) = N[C@@H](Cc1ccc(-c2ccccc2)nc1)C(=O)O; Phe(4-COOH) = N[C@@H](Cc1ccc(C(=O)O)cc1)C(=O)O; Bip = N[C@@H](Cc1ccc(-c2ccccc2)cc1)C(=O)O; Ala(4-THP) = N[C@@H](CC1CCOCC1)C(=O)O; Hyp = O=C(O)[C@@H]1C[C@@H](O)CN1; βAla = NCCC(=O)O

Key:
BMP4 [1] = biological target: T1, BMP4 (Homo sapiens, UniProt P12644); experiment: Intermolecular interaction by surface plasmon resonance (SPR), immobilized BMP4; format: binding; details: which BMP is not specified
T1 sequence (P12644 293-408): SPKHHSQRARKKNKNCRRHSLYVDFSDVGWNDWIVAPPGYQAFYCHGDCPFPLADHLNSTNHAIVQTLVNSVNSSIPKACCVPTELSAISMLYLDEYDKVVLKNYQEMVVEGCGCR
Experimental: The test of the intermolecular interaction by the surface plasmon resonance (SPR) of each of the peptides synthesized in Examples 2 and 3 against BMP4/BMP7 was performed by the following manner. The test method is specifically shown as follows.
A CM5 sensor chip (Cytiva) was inserted into a BiacoreT200 (Cytiva). Three priming runs were performed using running buffer: HBS-EP+ (Cytiva). The system was then equilibrated at a flow rate of 30 μL/min. Subsequently, 50 μL of 60 mM EDC solution (Cytiva) and 50 μL of 650 mM NHS solution (Cytiva) were mixed and were allowed to react at a flow rate of 10 μL/min for 420 seconds. The resultant was diluted with a 10 mM acetic acid solution (pH 5.0), to prepare 150 μL of 0.2 μM BMP4/BMP7 solution. The solution was allowed to react at a flow rate of 10 μL/min for 420 seconds, and the BMP4/BMP7 was immobilized in a CM5 sensor chip. After immobilization, capping was performed by reacting with 1.0 M ethanolamine aqueous solution (Cytiva) at a flow rate of 10 μL/min for 420 seconds. […]
(§1) The kinetics evaluation model was Single Cycle Kinetics, and curve fitting was performed using Biacore T200 Evaluation Software Version 3.0 (Cytiva). The binding of peptides to BMP4/BMP7 was evaluated by performing least-squares curve fitting on the obtained sensorgram to calculate the KD value.

BMP7 [2] = biological target: T2, BMP7 (UniProt P18075 293-431); experiment: cell-based or functional assay
T2 sequence (looked up): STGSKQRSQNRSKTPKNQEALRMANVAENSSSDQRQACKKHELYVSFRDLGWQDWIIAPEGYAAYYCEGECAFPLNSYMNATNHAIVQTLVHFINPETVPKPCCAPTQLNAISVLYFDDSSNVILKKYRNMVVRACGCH

BMP4 [3] = biological target: T3, BMP4 (UniProt P12644 293-408); experiment: cell-based or functional assay
T3 sequence (looked up): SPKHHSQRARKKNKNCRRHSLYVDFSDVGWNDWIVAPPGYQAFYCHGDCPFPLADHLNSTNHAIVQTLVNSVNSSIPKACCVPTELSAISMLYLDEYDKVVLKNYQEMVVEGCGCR

BMP7 [4] = biological target: T2, BMP7; experiment: cell-based or functional assay; remark: listed apart in the source
BMP4 [5] = biological target: T3, BMP4; experiment: cell-based or functional assay; remark: listed apart in the source
BMP7 [6] = biological target: T2, BMP7; experiment: cell-based or functional assay; remark: listed apart in the source
BMP4 [7] = biological target: T3, BMP4; experiment: cell-based or functional assay; remark: listed apart in the source
BMP2 = BMP2 (UniProt P12643 283-396); experiment: cell-based or functional assay
BMP7 [8] = biological target: T2, BMP7; experiment: SPR (Biacore T200), BMP7 amine-coupled on CM5 chip, peptide as analyte, single cycle kinetics
Experimental: (§2) A CM5 sensor chip (Cytiva) was inserted into a BiacoreT200 (Cytiva). Three priming runs were performed using running buffer: HBS-EP+ (Cytiva). The system was then equilibrated at a flow rate of 30 μL/min. Subsequently, 50 μL of 60 mM EDC solution (Cytiva) and 50 μL of 650 mM NHS solution (Cytiva) were mixed and were allowed to react at a flow rate of 10 μL/min for 420 seconds. The resultant was diluted with a 10 mM acetic acid solution (pH 5.0), to prepare 150 μL of 0.2 μM BMP4/BMP7 solution. The solution was allowed to react at a flow rate of 10 μL/min for 420 seconds, and the BMP4/BMP7 was immobilized in a CM5 sensor chip. After immobilization, capping was performed by reacting with 1.0 M ethanolamine aqueous solution (Cytiva) at a flow rate of 10 μL/min for 420 seconds. A liquid prepared by dissolving each peptide at 10 mM in a DMSO solution was diluted with a running buffer so that the final concentration of the peptide-dissolved liquid would be 10 μM. Then, the peptide solutions (100 nM, 50 nM, 25 nM, 10 nM, and 5 nM) were prepared. […]
as §1

BMP4 [9] = biological target: T3, BMP4; experiment: SPR (Biacore T200), BMP4 amine-coupled on CM5 chip, peptide as analyte, single cycle kinetics
Experimental: as §2, §1

BMP6 = biological target: T4, BMP6 (UniProt P22004 382-513, limits assumed); experiment: cell-based or functional assay
T4 sequence (looked up): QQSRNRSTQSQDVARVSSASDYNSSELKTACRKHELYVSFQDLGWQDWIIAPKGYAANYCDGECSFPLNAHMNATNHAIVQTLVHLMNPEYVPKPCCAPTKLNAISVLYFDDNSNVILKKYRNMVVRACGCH

BMP7 [10] = biological target: T2, BMP7; experiment: cell-based or functional assay; remark: listed apart in the source
BMP5 = biological target: T5, BMP5 (UniProt P22003 317-454, limits assumed); experiment: cell-based or functional assay
T5 sequence (looked up): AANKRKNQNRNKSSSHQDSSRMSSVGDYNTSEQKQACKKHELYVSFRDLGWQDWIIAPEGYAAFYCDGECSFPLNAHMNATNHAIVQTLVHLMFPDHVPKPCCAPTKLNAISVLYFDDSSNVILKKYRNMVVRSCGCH

BMP7 [11] = biological target: T2, BMP7; experiment: cell-based or functional assay; remark: listed apart in the source
BMP4 [12] = biological target: T3, BMP4; experiment: cell-based or functional assay; remark: listed apart in the source

BMP2, sequence (P12643 283-396 limits assumed): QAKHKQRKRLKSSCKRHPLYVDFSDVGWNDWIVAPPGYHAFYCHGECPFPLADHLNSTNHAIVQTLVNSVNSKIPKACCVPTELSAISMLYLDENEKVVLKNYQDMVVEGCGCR

IC50 (nM), SMAD1 phosphorylation in A549 cells (BMP7 [2]): 5.74 nM
IC50 (nM), SMAD1 phosphorylation in A549 cells (BMP4 [3]): 0.13 nM
IC50 (nM), SMAD1 phosphorylation in A549 cells (BMP7 [4]): 2.7 nM
IC50 (nM), SMAD1 phosphorylation in A549 cells (BMP4 [5]): 0.08 nM
Molecule: recombinant Human Noggin Protein (R&D) (from UniProt Q13253 28-232)

Kd (BMP7 [8]): 2.3 nM
Kd (BMP4 [9]): 0.4 nM
IC50, SMAD1 phosphorylation, BMP6 3 nM (BMP6): 3.9 nM
IC50, SMAD1 phosphorylation, BMP7 10 nM (BMP7 [10]): 1.43 nM
IC50, SMAD1 phosphorylation, BMP5 2 nM (BMP5): 9.17 nM
IC50, SMAD1 phosphorylation, BMP2 0.3 nM (BMP2): 0.21 nM
IC50 (nM), SMAD1 phosphorylation in A549 cells (BMP7 [11]): 1.4 nM
IC50 (nM), SMAD1 phosphorylation in A549 cells (BMP4 [12]): 0.053 nM
B2: BMP4 signal transduction inhibition peptide No. 177 (SEQ ID NO: 177) (peptide)
peptide: {CH2CO}-ERV[Phe(4-COOH)][Ala(4-THP)]DR[Bip]PYP[Bip]Y[Phe(4-COOH)][Phe(4-COOH)]SC[βAla][dE]-OH
modifications: thioether N-17
SMILES: CC(C)[C@@H]1NC(=O)[C@H](CCCNC(=N)N)NC(=O)[C@H](CCC(=O)O)NC(=O)CSC[C@@H](C(=O)NCCC(=O)N[C@H](CCC(=O)O)C(=O)O)NC(=O)[C@H](CO)NC(=O)[C@H](Cc2ccc(C(=O)O)cc2)NC(=O)[C@H](Cc2ccc(C(=O)O)cc2)NC(=O)[C@H](Cc2ccc(O)cc2)NC(=O)[C@H](Cc2ccc(-c3ccccc3)cc2)NC(=O)[C@@H]2CCCN2C(=O)[C@H](Cc2ccc(O)cc2)NC(=O)[C@@H]2CCCN2C(=O)[C@H](Cc2ccc(-c3ccccc3)cc2)NC(=O)[C@H](CCCNC(=N)N)NC(=O)[C@H](CC(=O)O)NC(=O)[C@H](CC2CCOCC2)NC(=O)[C@H](Cc2ccc(C(=O)O)cc2)NC1=O
notes: thioether ring between N-terminal chloroacetyl and Cys17

The next lines start with the molecule.

Molecule: E-R-V-F4COO-Atp-D-R-Bph-P-Y-P-Bph-Y-F4COO-F4COO-S-C (ERV[Phe(4-COOH)][Ala(4-THP)]DR[Bip]PYP[Bip]Y[Phe(4-COOH)][Phe(4-COOH)]SC) [SEQ ID NO: 1]
BMP binding activity (in words) (BMP4 [1]): confirmed to have BMP binding activity

Molecule: {CH2CO}-ERV[Phe(4-COOH)]V[KCOpipzaa]R[3Pal(6-Ph)][KCOpipzaa]Y[Hyp][Bip]Y[Phe(4-COOH)][Phe(4-COOH)]SCG-NH2 (thioether N-17 (inferred)) [BMP4 signal transduction inhibition peptide SEQ ID NO: 277 (Example 8)]
IC50 (nM), SMAD1 phosphorylation in A549 cells (BMP7 [6]): 455 nM
IC50 (nM), SMAD1 phosphorylation in A549 cells (BMP4 [7]): 0.073 nM
IC50, SMAD1 phosphorylation, BMP2 0.3 nM (BMP2): 0.45 nM

B1: BMP4 signal transduction inhibition peptide No. 84 (SEQ ID NO: 84) (peptide)
peptide: {CH2CO}-ERVYVDR[Bip]PYV[Bip]Y[Phe(4-COOH)][Phe(4-COOH)]SC[βAla][dE]-OH
modifications: thioether N-17
SMILES: CC(C)[C@@H]1NC(=O)[C@H](Cc2ccc(O)cc2)NC(=O)[C@H](C(C)C)NC(=O)[C@H](CCCNC(=N)N)NC(=O)[C@H](CCC(=O)O)NC(=O)CSC[C@@H](C(=O)NCCC(=O)N[C@H](CCC(=O)O)C(=O)O)NC(=O)[C@H](CO)NC(=O)[C@H](Cc2ccc(C(=O)O)cc2)NC(=O)[C@H](Cc2ccc(C(=O)O)cc2)NC(=O)[C@H](Cc2ccc(O)cc2)NC(=O)[C@H](Cc2ccc(-c3ccccc3)cc2)NC(=O)[C@H](C(C)C)NC(=O)[C@H](Cc2ccc(O)cc2)NC(=O)[C@@H]2CCCN2C(=O)[C@H](Cc2ccc(-c3ccccc3)cc2)NC(=O)[C@H](CCCNC(=N)N)NC(=O)[C@H](CC(=O)O)NC1=O
notes: as for B2
Kd (BMP7 [8]): 21.7 nM
Kd (BMP4 [9]): 2.1 nM
